Laboratory results taken from publication PMC6933771.

Target: human prothrombin (human)

staphylocoagulase (natural protein)
amidolytic activity of the SCG-PT complex on the chromogenic thrombin substrate S-2238, specific activity relative to human thrombin (9.1 IU/nmol): 5.5 IU/nmol
clotting activity of the SCG-PT complex in human plasma, specific activity relative to human thrombin: 4.2 IU/nmol
clotting activity of the SCG-PT complex on purified human fibrinogen (3.0 g/L), specific activity relative to human thrombin: 3.6 IU/nmol
